Assay [1] concerns the target GST-hERK1 recombinant protein (human) (UniProt P27361). Kind of assay: non-reducing SDS-PAGE after pull-down, band identified by MALDI-TOF-MS; GST-hERK1 on GSH-agarose incubated with HeLa mitochondrial extract, high stringency; electrophoresis in the absence of β-ME or DTT; band of MW ~130.
The target of assay [2] is hERK1-GFP (human) (UniProt P27361). Kind of assay: FRET or BRET; acceptor photobleaching FRET in fixed HeLa cells transfected with hERK1-GFP; partner labelled with primary antibody and Cy3-conjugated secondary antibody; GFP/Cy3 pair.
Assay [3] has as its target endogenous phospho-ERK1/2 (human (endogenous in HeLa)) (UniProt P27361). Kind of assay: FRET or BRET; acceptor photobleaching FRET in fixed untransfected HeLa cells; endogenous phospho-ERK1/2 and partner labelled with primary antibodies and Cy3- or Cy5-conjugated secondary antibodies; Cy3/Cy5 pair. (In BRET a luciferase serves as donor, and the signal depends on an acceptor being close.)

For “GST-hERK1 recombinant protein (from UniProt P27361 1-379) (enzyme)”, the stoichiometry N in assay [1] turned out to be 2.

With “Porin 31HL (VDAC1), voltage-dependent anion channel 1 (from UniProt P21796 1-283) (natural protein)”, the mean FRET efficiency (cytoplasm) in assay [2] came to 0.3.

The substance “Histone H4 (from UniProt P62805 1-103) (natural protein)” displayed an FRET efficiency (nuclei) in assay [2] of 0.2.

Substance “Histone H2A (from UniProt P0C0S8 1-130) (natural protein)” had an FRET efficiency (nuclei) in assay [2] of 0.3. In assay [3], the mean FRET efficiency worked out at 0.17.

A word on the stoichiometry N: it is the number of molecules, sites or subunits per partner or assembly.

(Values after paper PMC2760858.)
